What all share (test): cell-based or functional assay
The target in experiment [1] is Lactobacillus reuteri SSB (Lactobacillus reuteri).
In experiment [2] the target is Corynebacterium glutamicum SSB (Corynebacterium glutamicum).
Experiment [3] has as its target E. coli single-strand DNA-binding protein (SSB) (Escherichia coli) (UniProt P0AGE0).
Chain of UniProt P0AGE0 (P0AGE0 2-178 limits assumed): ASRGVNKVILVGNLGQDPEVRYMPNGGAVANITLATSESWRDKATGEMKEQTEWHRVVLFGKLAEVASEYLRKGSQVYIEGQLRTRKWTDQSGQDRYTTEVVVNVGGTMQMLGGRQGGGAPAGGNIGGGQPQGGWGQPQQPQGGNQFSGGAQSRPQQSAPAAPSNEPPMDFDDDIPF

With Corynebacterium glutamicum recT, in experiment [1], the Allele Recombination (AR) Frequency in E. coli, bi-cistronic co-expression was 0.044. In experiment [2], the Allele Recombination (AR) Frequency in E. coli, bi-cistronic co-expression is 0.245 and the increase of AR frequency over the SSAP alone was 10 fold.

For the substance “λ β expressed from pARC8 in E. coli (no tag stated) (from UniProt P03698 1-261)”, the Allele Recombination (AR) Frequency in E. coli, bi-cistronic co-expression in experiment [3] was 0.09.

With Lactobacillus reuteri recT1, in experiment [1], the Allele Recombination (AR) Frequency in E. coli, bi-cistronic co-expression came out at 0.003 and the increase of recombination frequency over the SSAP alone is 10 fold. Further, in experiment [2], the Allele Recombination (AR) Frequency in E. coli, bi-cistronic co-expression is 0.000496.

(Values after patent publication US20210332350A1.)
